The target in test [1] is T1, Extracellular domain (ECD) of the canine IL-4 receptor alpha-AviTag-His Tag (canine).
T1 construct: expressed in CHO cells; also called canine IL-4RA; canine IL4Ra
T1 chain: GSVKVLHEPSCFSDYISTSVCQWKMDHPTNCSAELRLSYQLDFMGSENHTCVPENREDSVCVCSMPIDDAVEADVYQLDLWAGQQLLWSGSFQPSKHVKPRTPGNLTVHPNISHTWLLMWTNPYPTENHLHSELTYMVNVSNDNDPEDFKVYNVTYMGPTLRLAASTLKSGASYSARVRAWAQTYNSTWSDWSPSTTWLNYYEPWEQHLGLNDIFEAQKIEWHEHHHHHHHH
Nature of the test: SPR, IgG captured via anti-dog Fc.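 Further: biacore T200 SPR with antibodies captured on CM5 chip bearing anti-dog Fc, 120 s association then 600 s dissociation, double-referenced sensorgrams fitted with 1:1 binding model.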 For orientation: SPR reads the build-up and loss of mass on a sensor chip optically.

The target of test [2] is canine IL-4RA on canine DH82 cells (canine). Nature of the test: cell-based or functional assay.
The target is the same in test [3]. Nature of the test: cell-based or functional assay. The source holds these as a separate data set.
Test [4] concerns the target T2, Extracellular domain (ECD) of the canine IL-4 receptor alpha-V5 epitope-AviTag-His Tag (canine).
T2 construct: monomeric form isolated by size exclusion; also called canine IL-4RA-V5-Avi-His; canine IL-4RA
T2 chain: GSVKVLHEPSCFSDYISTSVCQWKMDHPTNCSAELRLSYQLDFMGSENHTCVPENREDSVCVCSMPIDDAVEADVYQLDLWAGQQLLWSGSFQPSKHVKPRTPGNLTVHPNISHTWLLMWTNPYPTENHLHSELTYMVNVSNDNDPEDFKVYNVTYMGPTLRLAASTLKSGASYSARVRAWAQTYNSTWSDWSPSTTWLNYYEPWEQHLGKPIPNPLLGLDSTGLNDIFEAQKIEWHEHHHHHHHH
Nature of the test: SPR, Fab-SASA captured on BSA.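 Further: biacore T200 SPR, Fab-SASA variants from E. coli conditioned medium captured on BSA-coated CM5 chip, canine IL-4RA injected 120 s then 420 s dissociation, 1:1 model fit.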

For test [5], the target named is canine IL-4RA (construct not given) (canine). The experiment in a line: SPR, combinatorial Fab-SASA clone.

Several values for one entry are separate records, joined by “and”; a condition that tells them apart may be missing. Equal entries are not always repeated.

B1: GFmix_PTH-H + GFmix_THS-L (antibody, V domains shown)
VH: EVQLVESGGDLVKPGGSLRLSCVASGFPFRDYAMTWVRQAPGKGLQWLSLISGSGGKTYYADAVKGRFTISRDNAKNTLYLQMNSLRAEDTAVYYCAVDRLTKTIRPQYYGLWHWGQGTLVTVSS
VL: DIVMTQTPLSLSVSPGETASISCRSSQSLTYSIGYNYLDWYMQKPGQSPQGLIYLGSKRASGVSDRFSGSGSGADFTLKISRVEADDAGVYYCMQGLHSPLGFGQGTKLEIKR
Turning to B1, in test [1], binding was put at a Kd of 0.171 nM, the koff was 7.78e-05 s⁻¹ and the kon turned out to be 458000 M⁻¹ s⁻¹. Further, the “IC50: % inhibition of STAT6 phosphorylation (AlphaLISA pSTAT6) in canine DH82 cells stimulated with 50 ng/mL canine IL-13” value in test [2] turned out to be 0.21 nM. Also, in test [3], the “IC50: % inhibition of STAT6 phosphorylation (AlphaLISA pSTAT6) in canine DH82 cells stimulated with 20 ng/mL canine IL-4” value was determined as 1.03 nM.

B2: TB640_005 Fab-SASA wild type (Fab, V domains shown)
VH: EVQLVESGGDLVKPGGSLRLSCVASGFTFRDYAMTWVRQAPGKGLQWVSLISGSGGKTYYADAVKGRFTISRDNAKNTLYLQMNSLRAEDTAVYYCAVDRLTKTIRPQYYGLWVWGQGTLVTVSS
VL: DIVMTQTPLSLSVSPGETASISCRSSQSLLYSIGYNYLDWYLQKPGQSPQGLIYLGSKRASGVPDRFSGSGSGTDFTLRISRVEANDTGVYYCMQGLQSPLTFGQGTKLEIKR
notes: secreted from E. coli, tested in conditioned medium; also called WT; not shown: SASA tag then His-tag
Turning to B2, in test [4], the dissociation constant Kd is 13 nM and 13.3 nM and 13.2 nM; the “Ratio WT-kd/clone-kd” value turned out to be 1; the koff is 0.000952 s⁻¹ and 0.000953 s⁻¹; the kon is 73100 M⁻¹ s⁻¹ and 71700 M⁻¹ s⁻¹ and 72400 M⁻¹ s⁻¹. In test [5], the Kd was 6.07 nM, the koff was determined as 0.00116 s⁻¹ and the kon came to 191000 M⁻¹ s⁻¹.

The term Kd denotes the free concentration of one partner at which half of the binding sites on the other are occupied at equilibrium, for simple one-to-one binding. What is called koff is the rate constant with which the complex falls apart. As a reminder, the kon is the second-order rate constant of association.

These data come from patent publication US20250188176A1 (INVETX, published 2025).
